Assay results taken from publication doi:10.1101/2025.04.23.649697, “Biomass-derived Lignin Nanoparticles for the Sustained Delivery of Vascular Endothelial Growth Factor-C” (bioRxiv, 2025).

Biological target: the molecule itself
Assay: SEC; HiLoad 26/600 Superdex 200 pg in PBS, after IMAC; peaks identified using BSA as a molecular weight marker

B1: mature Vascular Endothelial Growth Factor C (dNdC-hVEGF-C-H6) (ligand, human, UniProt P49767 112-227, looked up)
chain: AHYNTEILKSIDNEWRKTQCMPREVCIDVGKEFGVATNTFFKPPCVSVYRCGGCCNSEGLQCMNTSTSYLSKTLFEITVPLSQGPKPVTISFANHTSCRCMSKLDVYRQVHSIIRR
notes: VEGF-C, human, dNdC form (called mature VEGFC); secreted with the BiP signal peptide of the vector pMT-Ex; SEC gave dimeric and monomeric species; The dimeric peak was collected and used for nanoparticle loading and the bioassays; also called mature VEGFC; purified mature VEGFC; not shown: His6 (H6 in the construct's name)
- stoichiometry N: 2
